Earlier results in article PMC4769797.

Target: VEGFR1 (Homo sapiens) (UniProt P17948)
UniProt P17948, sequence (P17948 27-1338): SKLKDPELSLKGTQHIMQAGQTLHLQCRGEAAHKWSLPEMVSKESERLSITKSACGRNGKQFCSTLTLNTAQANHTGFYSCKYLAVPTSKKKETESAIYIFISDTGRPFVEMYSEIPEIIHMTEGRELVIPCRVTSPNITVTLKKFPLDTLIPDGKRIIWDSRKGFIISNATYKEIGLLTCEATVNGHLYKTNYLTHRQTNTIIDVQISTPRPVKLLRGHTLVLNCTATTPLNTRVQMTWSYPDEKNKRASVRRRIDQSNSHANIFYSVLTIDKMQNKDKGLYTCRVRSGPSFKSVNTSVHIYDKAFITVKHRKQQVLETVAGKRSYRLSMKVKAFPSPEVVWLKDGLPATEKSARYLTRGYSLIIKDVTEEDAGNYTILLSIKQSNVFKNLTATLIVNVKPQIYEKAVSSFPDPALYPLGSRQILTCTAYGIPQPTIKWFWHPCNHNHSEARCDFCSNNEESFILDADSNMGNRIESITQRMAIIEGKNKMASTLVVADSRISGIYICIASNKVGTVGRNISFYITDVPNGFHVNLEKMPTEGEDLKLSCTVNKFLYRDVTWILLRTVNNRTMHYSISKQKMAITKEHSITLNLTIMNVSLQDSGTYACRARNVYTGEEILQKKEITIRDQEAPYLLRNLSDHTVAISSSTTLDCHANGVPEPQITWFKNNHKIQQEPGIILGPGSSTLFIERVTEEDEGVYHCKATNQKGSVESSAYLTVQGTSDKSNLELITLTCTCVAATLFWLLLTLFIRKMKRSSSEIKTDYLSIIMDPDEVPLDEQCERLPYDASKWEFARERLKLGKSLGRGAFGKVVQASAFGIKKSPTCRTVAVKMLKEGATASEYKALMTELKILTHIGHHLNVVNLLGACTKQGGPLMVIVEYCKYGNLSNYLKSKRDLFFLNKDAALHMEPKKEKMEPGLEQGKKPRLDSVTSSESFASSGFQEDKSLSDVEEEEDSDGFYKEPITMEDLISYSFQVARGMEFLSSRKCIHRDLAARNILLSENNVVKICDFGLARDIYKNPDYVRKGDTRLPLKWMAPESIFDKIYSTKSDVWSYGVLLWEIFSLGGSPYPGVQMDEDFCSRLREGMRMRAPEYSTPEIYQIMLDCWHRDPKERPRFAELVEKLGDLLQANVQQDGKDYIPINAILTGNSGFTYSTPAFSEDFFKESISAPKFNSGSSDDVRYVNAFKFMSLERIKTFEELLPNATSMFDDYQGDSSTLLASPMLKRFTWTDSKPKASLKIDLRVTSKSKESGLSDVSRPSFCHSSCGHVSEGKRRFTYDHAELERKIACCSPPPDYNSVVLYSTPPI

For VEGFA (from UniProt P15692), the Kd is given as 0.1 nM.
